Reference: US20260242735A1 (UNIVERSIT T BASEL, published 2026)

Tests used:
Assay in all cases: alanine scan, flow cytometry;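 note: HEK293-T cells transiently expressing single-residue alanine mutants of CD33 (alanine swapped to serine), antibody binding read by fluorescence in duplicate, background-subtracted, expressed relative to wild-type CD33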
[1] = target: human CD33 T223A (human, UniProt P20138 18-364)
[2] = target: human CD33 T232A (human, UniProt P20138 18-364)
[3] = target: T1, human CD33 I198A (human, UniProt P20138 18-364)
T1 construct: the leading token is not explained
T1 sequence (P20138 18-364 I198A limits assumed): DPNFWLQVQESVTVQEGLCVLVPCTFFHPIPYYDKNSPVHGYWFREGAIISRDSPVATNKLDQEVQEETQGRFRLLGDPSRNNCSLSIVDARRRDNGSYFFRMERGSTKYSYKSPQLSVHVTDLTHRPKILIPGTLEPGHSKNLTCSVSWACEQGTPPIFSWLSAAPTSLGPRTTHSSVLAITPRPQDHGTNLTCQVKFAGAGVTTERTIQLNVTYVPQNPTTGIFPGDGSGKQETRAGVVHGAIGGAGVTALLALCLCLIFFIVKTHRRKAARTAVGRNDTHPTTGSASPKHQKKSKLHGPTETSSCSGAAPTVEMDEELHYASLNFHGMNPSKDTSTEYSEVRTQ

[4] = target: human CD33 N230A (human, UniProt P20138 18-364)
Sequence of human CD33 N230A (P20138 18-364 N230A limits assumed): as the sequence (P20138 18-364 I198A limits assumed) above, with A181I, N213A counted along it

[5] = target: human CD33 V234A (human, UniProt P20138 18-364)
[6] = target: human CD33 T200A (human, UniProt P20138 18-364)
[7] = target: human CD33 Y233A (human, UniProt P20138 18-364)
[8] = target: human CD33 T211A (human, UniProt P20138 18-364)
Sequence of human CD33 T211A (P20138 18-364 T211A limits assumed): as the sequence (P20138 18-364 I198A limits assumed) above, with A181I, T194A counted along it

[9] = target: human CD33 A217S (human, UniProt P20138 18-364)
[10] = target: human CD33 G264A (human, UniProt P20138 18-364)
[11] = target: human CD33 V267A (human, UniProt P20138 18-364)
Sequence of human CD33 V267A (P20138 18-364 V267A limits assumed): as the sequence (P20138 18-364 I198A limits assumed) above, with A181I, V250A counted along it

[12] = target: human CD33 S248A (human, UniProt P20138 18-364)
[13] = target: human CD33 F243A (human, UniProt P20138 18-364)
[14] = target: human CD33 D246A (human, UniProt P20138 18-364)
Sequence of human CD33 D246A (P20138 18-364 D246A limits assumed): as the sequence (P20138 18-364 I198A limits assumed) above, with A181I, D229A counted along it

[15] = target: human CD33 R225A (human, UniProt P20138 18-364)
Sequence of human CD33 R225A (P20138 18-364 R225A limits assumed): as the sequence (P20138 18-364 I198A limits assumed) above, with A181I, R208A counted along it

[16] = target: human CD33 R202A (human, UniProt P20138 18-364)
Sequence of human CD33 R202A (P20138 18-364 R202A limits assumed): as the sequence (P20138 18-364 I198A limits assumed) above, with A181I, R185A counted along it

[17] = target: human CD33 Q251A (human, UniProt P20138 18-364)
[18] = target: human CD33 H206A (human, UniProt P20138 18-364)
[19] = target: human CD33 A269S (human, UniProt P20138 18-364)
[20] = target: human CD33 T253A (human, UniProt P20138 18-364)
[21] = target: human CD33 G260A (human, UniProt P20138 18-364)
[22] = target: human CD33 T226A (human, UniProt P20138 18-364)
[23] = target: human CD33 V258A (human, UniProt P20138 18-364)
[24] = target: human CD33 G245A (human, UniProt P20138 18-364)
[25] = target: human CD33 G263A (human, UniProt P20138 18-364)
[26] = target: human CD33 G256A (human, UniProt P20138 18-364)
[27] = target: human CD33 P203A (human, UniProt P20138 18-364)
[28] = target: human CD33 A255S (human, UniProt P20138 18-364)
Sequence of human CD33 A255S (P20138 18-364 A255S limits assumed): as the sequence (P20138 18-364 I198A limits assumed) above, with A181I, A238S counted along it

[29] = target: human CD33 Q228A (human, UniProt P20138 18-364)
Sequence of human CD33 Q228A (P20138 18-364 Q228A limits assumed): as the sequence (P20138 18-364 I198A limits assumed) above, with A181I, Q211A counted along it

[30] = target: human CD33 I199A (human, UniProt P20138 18-364)
[31] = target: human CD33 K250A (human, UniProt P20138 18-364)
Sequence of human CD33 K250A (P20138 18-364 K250A limits assumed): as the sequence (P20138 18-364 I198A limits assumed) above, with A181I, K233A counted along it

[32] = target: human CD33 L197A (human, UniProt P20138 18-364)
Sequence of human CD33 L197A (P20138 18-364 L197A limits assumed): as the sequence (P20138 18-364 I198A limits assumed) above, with L180A, A181I counted along it

[33] = target: human CD33 T239A (human, UniProt P20138 18-364)
[34] = target: human CD33 T208A (human, UniProt P20138 18-364)
Sequence of human CD33 T208A (P20138 18-364 T208A limits assumed): as the sequence (P20138 18-364 I198A limits assumed) above, with A181I, T191A counted along it

[35] = target: human CD33 V196A (human, UniProt P20138 18-364)
[36] = target: human CD33 I227A (human, UniProt P20138 18-364)
[37] = target: human CD33 A219S (human, UniProt P20138 18-364)
[38] = target: human CD33 G241A (human, UniProt P20138 18-364)
Sequence of human CD33 G241A (P20138 18-364 G241A limits assumed): as the sequence (P20138 18-364 I198A limits assumed) above, with A181I, G224A counted along it

[39] = target: human CD33 G249A (human, UniProt P20138 18-364)
Sequence of human CD33 G249A (P20138 18-364 G249A limits assumed): as the sequence (P20138 18-364 I198A limits assumed) above, with A181I, G232A counted along it

[40] = target: human CD33 I262A (human, UniProt P20138 18-364)
[41] = target: human CD33 C41A (human, UniProt P20138 18-364)

B1: Refmab #5 (antibody, V domains shown)
VH: QVQLVQSGAEVKKPGASVKVSCKASGYTFTNYDINWVRQAPGQGLEWIGWIYPGDGSTKYNEKFKAKATLTADTSTSTAYMELRSLRSDDTAVYYCASGYEDAMDYWGQGTTVTVSS
VL: DIQMTQSPSSLSASVGDRVTINCKASQDINSYLSWFQQKPGKAPKTLIYRANRLVDGVPSRFSGSGSGQDYTLTISSLQPEDFATYYCLQYDEFPLTFGGGTKVEIK
notes: Full-length format is human IgG1 Fc silent (PG-LALA); also made as Fab; The alanine scan used IgG or Fab
- Mean % WT Binding [1]: 115 % WT binding
- Mean % WT Binding [2]: 81.5 % WT binding
- Mean % WT Binding [3]: 84.7 % WT binding
- Mean % WT Binding [4]: 105 % WT binding
- Mean % WT Binding [5]: 115 % WT binding
- Mean % WT Binding [6]: 98.3 % WT binding
- Mean % WT Binding [7]: 89.5 % WT binding
- Mean % WT Binding [8]: 80.4 % WT binding
- Mean % WT Binding [9]: 121 % WT binding
- Mean % WT Binding [10]: 94.4 % WT binding
- Mean % WT Binding [11]: 95.2 % WT binding
- Mean % WT Binding [12]: 105 % WT binding
- Mean % WT Binding [13]: 103 % WT binding
- Mean % WT Binding [14]: 115 % WT binding
- Mean % WT Binding [15]: 124 % WT binding
- Mean % WT Binding [16]: 123 % WT binding
- Mean % WT Binding [17]: 94.7 % WT binding
- Mean % WT Binding [18]: 108 % WT binding
- Mean % WT Binding [19]: 124 % WT binding
- Mean % WT Binding [20]: 94.6 % WT binding
- Mean % WT Binding [21]: 102 % WT binding
- Mean % WT Binding [22]: 97.9 % WT binding
- Mean % WT Binding [23]: 95.9 % WT binding
- Mean % WT Binding [24]: 110 % WT binding
- Mean % WT Binding [25]: 104 % WT binding
- Mean % WT Binding [26]: 87.6 % WT binding
- Mean % WT Binding [27]: 105 % WT binding
- Mean % WT Binding [28]: 88.3 % WT binding
- Mean % WT Binding [29]: 129 % WT binding
- Mean % WT Binding [30]: 132 % WT binding
- Mean % WT Binding [31]: 85.7 % WT binding
- Mean % WT Binding [32]: 102 % WT binding
- Mean % WT Binding [33]: 107 % WT binding
- Mean % WT Binding [34]: 100 % WT binding
- Mean % WT Binding [35]: 84.5 % WT binding
- Mean % WT Binding [36]: 105 % WT binding
- Mean % WT Binding [37]: 93.7 % WT binding
- Mean % WT Binding [38]: 109 % WT binding
- Mean % WT Binding [39]: 105 % WT binding
- Mean % WT Binding [40]: 97.5 % WT binding

B2: Refmab #6 (antibody, V domains shown)
VH: QVQLQQPGAEVVKPGASVKMSCKASGYTFTSYYIHWIKQTPGQGLEWVGVIYPGNDDISYNQKFQGKATLTADKSSTTAYMQLSSLTSEDSAVYYCAREVRLRYFDVWGQGTTVTVSS
VL: EIVLTQSPGSLAVSPGERVTMSCKSSQSVFFSSSQKNYLAWYQQIPGQSPRLLIYWASTRESGVPDRFTGSGSGTDFTLTISSVQPEDLAIYYCHQYLSSRTFGQGTKLEIK
notes: as for B1
- Mean % WT Binding [1]: 110 % WT binding
- Mean % WT Binding [2]: 79.6 % WT binding
- Mean % WT Binding [3]: 89.3 % WT binding
- Mean % WT Binding [4]: 83.8 % WT binding
- Mean % WT Binding [5]: 109 % WT binding
- Mean % WT Binding [6]: 110 % WT binding
- Mean % WT Binding [7]: 103 % WT binding
- Mean % WT Binding [8]: 92.2 % WT binding
- Mean % WT Binding [9]: 91 % WT binding
- Mean % WT Binding [10]: 103 % WT binding
- Mean % WT Binding [11]: 101 % WT binding
- Mean % WT Binding [12]: 94.4 % WT binding
- Mean % WT Binding [13]: 98.2 % WT binding
- Mean % WT Binding [14]: 106 % WT binding
- Mean % WT Binding [15]: 104 % WT binding
- Mean % WT Binding [16]: 92.2 % WT binding
- Mean % WT Binding [17]: 126 % WT binding
- Mean % WT Binding [18]: 98.3 % WT binding
- Mean % WT Binding [19]: 93.9 % WT binding
- Mean % WT Binding [20]: 96.8 % WT binding
- Mean % WT Binding [21]: 97.2 % WT binding
- Mean % WT Binding [22]: 96.5 % WT binding
- Mean % WT Binding [23]: 95.9 % WT binding
- Mean % WT Binding [24]: 91.8 % WT binding
- Mean % WT Binding [25]: 94.3 % WT binding
- Mean % WT Binding [26]: 108 % WT binding
- Mean % WT Binding [27]: 103 % WT binding
- Mean % WT Binding [28]: 96.8 % WT binding
- Mean % WT Binding [29]: 100 % WT binding
- Mean % WT Binding [30]: 106 % WT binding
- Mean % WT Binding [31]: 98 % WT binding
- Mean % WT Binding [32]: 103 % WT binding
- Mean % WT Binding [33]: 87.3 % WT binding
- Mean % WT Binding [34]: 116 % WT binding
- Mean % WT Binding [35]: 116 % WT binding
- Mean % WT Binding [36]: 88.1 % WT binding
- Mean % WT Binding [37]: 92 % WT binding
- Mean % WT Binding [38]: 101 % WT binding
- Mean % WT Binding [39]: 96.6 % WT binding
- Mean % WT Binding [40]: 99.4 % WT binding

B3: Refmab #4 (antibody, V domains shown)
VH: QVQLVQSGAEVKKPGESVKVSCKASGYTFTNYGMNWVKQAPGQGLEWMGWINTYTGEPTYADKFQGRVTMTTDTSTSTAYMEIRNLGGDDTAVYYCARWSWSDGYYVYFDYWGQGTSVTVSS
VL: DIVMTQSPDSLTVSLGERTTINCKSSQSVLDSSTNKNSLAWYQQKPGQPPKLLLSWASTRESGIPDRFSGSGSGTDFTLTIDSPQPEDSATYYCQQSAHFPITFGQGTRLEIK
notes: Full-length format is human IgG1 Fc silent (PG-LALA); The alanine scan used IgG or Fab
- Mean % WT Binding [41]: 9.8 % WT

B4: Refmab #3 (antibody, V domains shown)
VH: QVQLVQSGAEVKKPGSSVKVSCKASGYTFTDYNMHWVRQAPGQGLEWIGYIYPYNGGTGYNQKFKSKATITADESTNTAYMELSSLRSEDTAVYYCARGRPAMDYWGQGTLVTVSS
VL: DIQMTQSPSSLSASVGDRVTITCRASESVDNYGISFMNWFQQKPGKAPKLLIYAASNQGSGVPSRFSGSGSGTDFTLTISSLQPDDFATYYCQQSKEVPWTFGQGTKVEIK
notes: as for B3
- Mean % WT Binding [41]: 30.7 % WT
